# According to patent US6214569A, “Methods for screening for inhibitors of Alzheimer β-peptide filament formation” (President and Fellows of Harvard College, priority 1997, dated 2001):
# “Also recorded” adds a separate entry of the source.
# T1: α1 -ACT (Homo sapiens, UniProt P01011)
# T1 sequence (P01011 24-423): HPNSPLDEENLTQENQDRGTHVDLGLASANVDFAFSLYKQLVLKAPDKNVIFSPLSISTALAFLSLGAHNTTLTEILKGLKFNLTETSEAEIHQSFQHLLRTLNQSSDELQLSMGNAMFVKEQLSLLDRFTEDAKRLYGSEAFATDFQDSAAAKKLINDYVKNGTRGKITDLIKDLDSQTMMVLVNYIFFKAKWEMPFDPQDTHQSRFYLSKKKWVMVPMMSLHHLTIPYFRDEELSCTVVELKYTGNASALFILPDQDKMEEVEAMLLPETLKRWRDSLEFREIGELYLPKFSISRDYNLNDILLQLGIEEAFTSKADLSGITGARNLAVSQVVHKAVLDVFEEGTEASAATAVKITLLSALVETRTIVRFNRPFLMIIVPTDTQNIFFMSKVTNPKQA
# How the values were obtained:
# [1] = target: T2, Aβ1-42 (Homo sapiens, UniProt P05067); assay: Aβ filament formation quantitated by electron microscopy (filament crossovers); format: biochemical; conditions: molar ratio 4:1, 18 hours
# T2 sequence (P05067 672-713): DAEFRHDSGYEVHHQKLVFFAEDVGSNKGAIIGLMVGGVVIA
# Experimental: At 18 hours, filaments were applied to carbon-coated Formvar on 200 mesh copper grids, dried, negatively stained with 3% uranyl acetate and visualized in a JEOL-100CX electron microscope. Many small and a few large filaments were visible in the electron micrograph and are representative of the products of this polymerization reaction.
# The degree of filament formation was analyzed using electron microscopy. The reaction mixture was diluted with water or buffer. A Formvar-coated copper electron microscope grid was touched briefly to a droplet of the reaction mixture, allowing the filaments to stick to the Formvar plastic film. This procedure was also performed with Formvar which was precoated with carbon prior to the sticking of the filaments to the surface. The filaments were then stained with either a solution of uranyl acetate or sprayed ("shadowed") with a heavy metal such as platinum to allow their visualization.
# The Aβ1-42 peptide was incubated in the presence of purified Apolipoproteins E2, E3 and E4 and α1 -ACT, ApoAI and ApoAII at a molar ratio of 4:1, as described in Examples 1 and 2. Electron microscopic examination of the reaction products was used to quantitate the amount of Aβ filament formation from the reaction of Aβ with ApoE3, ApoE4 or α1 -ACT. Five randomly chosen electron micrographs of each reaction product after 18 hours of incubation as in Examples 1 and 2 were analyzed by counting the number of crossovers that the filaments underwent with each other. This provides a measure of both the number and length of the amyloid filaments per unit area of the grid. […] The formation of Aβ filaments was inhibited when ApoE4 was incubated with Aβ in the presence of ApoE2 and equimolar amounts of ApoE4 and ApoE2 were used. Reducing the amount of Aβ filament formed to levels produced by the control protein, BSA (see FIG. 3).
# [2] = target: T1, α1 -ACT; conditions: disclosed in U.S. Ser. No. 08/179,574; cited from earlier work
# [3] = target: T1, α1 -ACT; conditions: disclosed in U.S. Ser. No. 08/179,574; cited from earlier work; remark: listed apart in the source
# [4] = tested on: human cortical neurons; assay: Neurotoxicity of Aβ filaments formed with promoting factors, MTT assay (Example 4); format: cell-based; conditions: applied day 12, MTT day 16
# Experimental: Certain promoters of the assembly of Aβ filaments of amyloid filaments formed in vitro also result in these filaments being neurotoxic. This was determined by using fetal human cortical tissue from 18-22 week gestation were used for this study. The protocol obtaining postmortem fetal tissue complied with all federal guidelines for federal research. The cortical cell culture were prepared as follows. The frontal and temporal lobes were removed from fetal brain. Cells were disassociated in calcium and magnesium free Hank's balanced salt solution containing 0.2% […] for 10 minutes at room temperature, and subsequently disassociated in serum-containing Dulbecco's Modified Eagle Medium (D-MEM) with DNase (0.2 mg/ml) for three times. The cells were plated onto laminin (10 μg/ml) coated 96-well plate ([…]) in a neuronbasal medium supplemented with B27 (Gibco), 2 mM glutamine and 1x antibiotic antimycotic solution and kept in a humidified 5% CO2 atmosphere. […]
# The products of the reactions shown in FIG. 3 were both applied to two or three sister cultured wells on day 12. Cell viability was evaluated by morphological criteria and colorimetric MTT (Tetrazolium) on day 16. […] The plates were read on a BT 1000 microreader, using a test wavelength of 550 nm, a reference wavelength of 650 nm. The plates were routinely read within 20 minutes of addition of DMSO.
# [5] = target: T2, Aβ1-42; assay: Aβ filament assembly monitored by light scattering; format: biochemical; conditions: Aβ1-42 80 μM, molar ratio 200:1, light scattering
# Experimental: Biosynthetic Aβ1-42 was incubated at a concentration of 80 μM in 100 μl of 10 μM Tris-HCl; pH 7.0 at 22° C. for 8, 24 and 48 hours. Assembly of Aβ into high molecular weight filamentous structures was monitored by light scattering at […]. Light scattering increases linearly according to the size and number of filaments formed. The results are shown in FIG. 1 and indicate that Aβ peptide spontaneously forms amyloid filaments, starting after about 8 hours of incubation; the rate of formation levels off after about 24 hours. The Aβ1-42 was incubated, as described in Example 1, in the presence or absence of α1 -antichymotrypsin or a control protein (BSA) at a molar ratio of 200:1. Filament assembly was monitored by light scattering. The results are shown in FIG. 2 and indicate that α1 -ACT results in the rate of filament formation being enhanced about ten-fold over the controls. Formation of filaments was essentially complete after about 8 hours.
# [6] = tested on: primary human cortical neurons; assay: Promotion of Aβ1-42 neurotoxicity by pathological chaperones, MTT assay (Example 12); format: cell-based; conditions: Aβ1-42 80 μM with 0.4 μM protein, 48 hours at 22° C.; MTT on day 4
# Experimental: Biosynthetic Aβ1-42 (80 μM) was incubated with ACT (CalBiochem), purified human apoE and individual control protein (0.4 μM) in 100 μl of 10 μM Tris-HCl, pH 7.0 for 48 hours at 22° C. The 12.5 μl of each reaction product was then added to 14 days old primary human cortical neurons in culture. The cell viability was measured by a colorimetric MTT (Sigma) assay on day 4. Data are expressed ±S.E.M. in FIGS. 7-9. ACT and apoE4 induced a 2- and 4-fold increase in neurotoxicity of Aβ1-42, respectively. […] Since Aβ1-42 is prone to self-aggregate into filaments, only aliquots of each preparation of Aβ1-42 devoid of filaments, as judged by electron microscopy, were used for experiments.
# Method of cell culture: The cortical neuron cultures were prepared as follows. Frontal lobes of brain were removed from an electively terminated human fetus on gestational age of 18-21 weeks. Cortical cells were dissociated in serum-free medium containing 0.2% trypsin (Sigma) and 25 μg/ml DNase I (Sigma) and plated 4×10^4 cells per well (96-well plate, Falcon) precoated with 10 μg/ml laminin (Gibco). The cells were cultured in DMEM (Gibco) supplemented with 10% fetal calf serum (Gibco) and 2 mM glutamine. Cultures were kept at 37° C. in a 7% CO2 atmosphere. After day 4 in vitro, non-neuronal cell division was halted by exposure to 10^-5 M cytosine arabinoside. […]
Molecule,promotion of Aβ filament formation (in words) [1],neurotoxicity of the reaction mixture of Aβ plus the substance [4],other results
ApoAI: Apolipoprotein AI,inactive,–,–
ApoAII: Apolipoprotein AII,inactive,–,–
Aβ1-28: peptide corresponding to amino acids 1-28 of the N-terminal of Aβ peptide,–,–,effect on the ability of α1-ACT to inhibit chymotrypsin [2]: suppress the ability of α1 -ACT to inhibit chymotrypsin; complex formation with α1-ACT [3]: form stable complexes
"Aβ: Alzheimer's β-peptide, 39-42 amino acid peptide; biosynthetic Aβ1-42 used in the examples [reference compound]",–,neurotoxic,–
"α1 -ACT: protease inhibitor α1-antichymotrypsin, amyloid associated protein (protein, UniProt P01011 24-423, looked up) Alpha-1-antichymotrypsin: HPNSPLDEENLTQENQDRGTHVDLGLASANVDFAFSLYKQLVLKAPDKNVIFSPLSISTALAFLSLGAHNTTLTEILKGLKFNLTETSEAEIHQSFQHLLRTLNQSSDELQLSMGNAMFVKEQLSLLDRFTEDAKRLYGSEAFATDFQDSAAAKKLINDYVKNGTRGKITDLIKDLDSQTMMVLVNYIFFKAKWEMPFDPQDTHQSRFYLSKKKWVMVPMMSLHHLTIPYFRDEELSCTVVELKYTGNASALFILPDQDKMEEVEAMLLPETLKRWRDSLEFREIGELYLPKFSISRDYNLNDILLQLGIEEAFTSKADLSGITGARNLAVSQVVHKAVLDVFEEGTEASAATAVKITLLSALVETRTIVRFNRPFLMIIVPTDTQNIFFMSKVTNPKQA",promote the formation of Aβ filaments,greatest neurotoxicity,enhancement of the rate of Aβ filament formation over the controls [5]: at least ten; also recorded: about ten; increase in neurotoxicity of Aβ1-42 [6]: 2 fold
